In US20230138315A1 (JIANGSU HENGRUI MEDICINE, published 2023):

T1: rat ANGPTL3(17-455)-His (rat, biotin-labelled in the ELISA and HTRF assays (sites not given))
T1 construct: also called full-length rat ANGPTL3
T1 chain: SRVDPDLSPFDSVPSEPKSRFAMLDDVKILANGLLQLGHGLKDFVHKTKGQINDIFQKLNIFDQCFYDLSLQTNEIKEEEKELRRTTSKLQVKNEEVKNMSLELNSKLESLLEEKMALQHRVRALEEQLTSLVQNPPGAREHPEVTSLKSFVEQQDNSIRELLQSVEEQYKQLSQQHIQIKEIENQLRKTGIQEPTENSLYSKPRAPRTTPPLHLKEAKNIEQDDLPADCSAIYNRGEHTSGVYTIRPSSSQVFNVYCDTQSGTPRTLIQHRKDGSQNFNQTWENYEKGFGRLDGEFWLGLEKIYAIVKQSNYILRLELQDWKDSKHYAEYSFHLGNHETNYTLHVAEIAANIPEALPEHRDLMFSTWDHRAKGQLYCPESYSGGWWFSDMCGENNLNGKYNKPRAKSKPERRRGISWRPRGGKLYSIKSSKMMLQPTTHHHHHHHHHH

T2: mouse ANGPTL3(17-455)-His (mouse, UniProt Q9R182 17-455, biotin-labelled in the ELISA and HTRF assays (sites not given))
T2 construct: also called full-length mouse ANGPTL3
T2 sequence: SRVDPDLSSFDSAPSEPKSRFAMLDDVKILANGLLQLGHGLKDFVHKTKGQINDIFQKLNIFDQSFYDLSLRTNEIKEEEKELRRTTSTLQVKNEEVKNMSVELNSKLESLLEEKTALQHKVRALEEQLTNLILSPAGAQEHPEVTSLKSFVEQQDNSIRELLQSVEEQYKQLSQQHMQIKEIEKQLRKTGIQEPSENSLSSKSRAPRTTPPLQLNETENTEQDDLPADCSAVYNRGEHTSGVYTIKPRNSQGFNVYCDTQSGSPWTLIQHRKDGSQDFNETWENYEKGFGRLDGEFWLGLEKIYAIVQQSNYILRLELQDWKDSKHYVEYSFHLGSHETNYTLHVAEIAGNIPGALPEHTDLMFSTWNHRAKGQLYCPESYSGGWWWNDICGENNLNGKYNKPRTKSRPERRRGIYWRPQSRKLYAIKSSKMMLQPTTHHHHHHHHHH

T3: cynomolgus monkey ANGPTL3(17-460)-His (cynomolgus monkey, UniProt Q9Y5C1 17-460 (human entry), biotin-labelled in the ELISA and HTRF assays (sites not given))
T3 chain: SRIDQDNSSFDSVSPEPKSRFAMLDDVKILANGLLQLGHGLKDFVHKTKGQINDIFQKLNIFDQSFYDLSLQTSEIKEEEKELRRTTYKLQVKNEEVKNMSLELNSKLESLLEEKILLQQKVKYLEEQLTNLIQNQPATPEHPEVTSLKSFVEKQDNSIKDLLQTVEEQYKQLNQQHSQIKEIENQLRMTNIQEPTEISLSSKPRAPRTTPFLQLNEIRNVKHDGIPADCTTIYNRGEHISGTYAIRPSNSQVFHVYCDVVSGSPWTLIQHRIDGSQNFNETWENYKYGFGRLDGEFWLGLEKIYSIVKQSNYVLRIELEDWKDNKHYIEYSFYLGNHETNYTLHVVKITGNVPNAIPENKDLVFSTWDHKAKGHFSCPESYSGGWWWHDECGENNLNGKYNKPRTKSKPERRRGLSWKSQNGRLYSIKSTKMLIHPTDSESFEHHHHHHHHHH

T4: human ANGPTL3(17-170)-Flag-His (human)
T4 chain: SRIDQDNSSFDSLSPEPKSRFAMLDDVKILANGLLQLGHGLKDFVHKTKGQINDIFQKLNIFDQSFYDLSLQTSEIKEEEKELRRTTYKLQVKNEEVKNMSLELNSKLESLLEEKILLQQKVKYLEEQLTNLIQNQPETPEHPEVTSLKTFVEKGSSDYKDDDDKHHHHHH


Key:
rat ANGPTL3(17-455)-His [1] = molecular target: T1, rat ANGPTL3(17-455)-His; experiment: SPR (Biacore T200); antibody captured on Protein A chip, antigen in flow; 1:1 Langmuir fit
Excerpt: (§1) Biacore was used to determine the affinity of the test anti-ANGPTL3 antibodies for human, monkey, rat and mouse ANGPTL3, and the method is as follows:
(§2) Reaction signals were detected in real time using a Biacore T200 instrument to obtain association and dissociation curves. After each cycle of dissociation was completed, the biochip was washed and regenerated using a glycine-hydrochloric acid regeneration solution (Cat. # BR-1003-54, GE, pH 1.5). The running buffer for the experiment was 1×HBS-EP buffer (Cat. # BR-1001-88, GE). The data obtained from the experiment were fitted with the (1:1) Langmuir model using GE Biacore T200 evaluation software (version 3.0) to obtain affinity values.

[2] = molecular target: T2, mouse ANGPTL3(17-455)-His; experiment: as above
Excerpt: as §1, §2

rat ANGPTL3(17-455)-His [3] = molecular target: T1, rat ANGPTL3(17-455)-His; experiment: HTRF; biotin-labelled antigen with Streptavidin-Tb cryptate
[4] = molecular target: T2, mouse ANGPTL3(17-455)-His; experiment: as above
[5] = molecular target: T3, cynomolgus monkey ANGPTL3(17-460)-His; experiment: cell-based or functional assay
rat ANGPTL3(17-455)-His [6] = molecular target: T1, rat ANGPTL3(17-455)-His; experiment: cell-based or functional assay
[7] = molecular target: T4, human ANGPTL3(17-170)-Flag-His; experiment: cell-based or functional assay
[8] = molecular target: T2, mouse ANGPTL3(17-455)-His; experiment: cell-based or functional assay

Binder	Kd (rat ANGPTL3(17-455)-His [1])	koff (rat ANGPTL3(17-455)-His [1])	kon (rat ANGPTL3(17-455)-His [1])	Kd [2]	koff [2]	kon [2]	EC50 (rat ANGPTL3(17-455)-His [3])	EC50 [4]	IC50 of blocking the inhibition of bovine LPL enzyme activity by ANGPTL3 [5]	IC50 of blocking the inhibition of bovine LPL enzyme activity by ANGPTL3 (rat ANGPTL3(17-455)-His [6])	IC50 of blocking the inhibition of bovine LPL enzyme activity by ANGPTL3 [7]	IC50 of blocking the inhibition of bovine LPL enzyme activity by ANGPTL3 [8]
P8G (antibody, human IgG4 S228P, kappa, V domains shown, also called anti-ANGPTL3 antibody P8G; P8 (variable regions)) VH: QVQLVQSGAEVKKPGASVKVSCKASGYTFTSYDINWVRQAPGQGLEWVGLINPRDDSTSYAQKFQGRVTMTRDTSTSTMYMELSSLRSEDTAVYFCARDLGSIREVLYYGMDVWGQGTTVTVSS VL: not shown	0.25 nM	0.000335 s⁻¹	1.34e+06 M⁻¹ s⁻¹	0.355 nM	0.000345 s⁻¹	970000 M⁻¹ s⁻¹						
P8BG (antibody, human IgG4 S228P, kappa, V domains shown, also called anti-ANGPTL3 antibody P8BG; P8B (variable regions)) VH: QVQLVQSGAEVKKPGASVKVSCKASGYTFTSYDINWVRQAPGQGLEWVGLINPREDSTSYAQKFQGRVTMTRDTSTSTMYMELSSLRSEDTAVYFCARDLGSIREVLYYGMDVWGQGTTVTVSS VL: not shown	0.257 nM	0.000311 s⁻¹	1.21e+06 M⁻¹ s⁻¹	0.288 nM	0.00042 s⁻¹	1.46e+06 M⁻¹ s⁻¹	0.362 nM	0.321 nM	53.6 nM	132 nM	75.3 nM	41.5 nM
P3G (antibody, human IgG4 S228P, kappa, V domains shown, also called anti-ANGPTL3 antibody P3G; P3 (variable regions)) VH: QVQLVQSGAEVKKPGASVKVSCKSSGYTFTDYYLHWLRQAPGQGPEWMGWISPNSGGTSYAQKFQGRVTMTRDTSISTAYMELSSLRSDDTAVYYCARDIATLGNFFTYGMDVWGQGTTVTVSS VL: DIQLTQSPSSLSASVGDRVTITCRASQGIRNDLGWYQQKPGKAPKLLIYAASSLQSGVPSRFSGSGSGTDFTLTISSLQPEDFATYYCQQSYSSWTFGQGTKVEIKR	0.639 nM	0.00082 s⁻¹	1.28e+06 M⁻¹ s⁻¹	0.843 nM	0.000827 s⁻¹	981000 M⁻¹ s⁻¹			42.4 nM	66.5 nM	68.9 nM	168 nM
